From PMC9432830 (Science Advances, 2022)
Read-outs that look alike come from different tables or passages of the source.

Experiments:
[1] = target: ctMic60sol V455D/F461D (Chaetomium thermophilum); experiment: ITC
[2] = target: Chaetomium thermophilum Mic60 excluding the TM region (residues 208 to 691) (Chaetomium thermophilum); experiment: native gel or EMSA
[3] = target: Chaetomium thermophilum Mic60 excluding the TM region (residues 208 to 691) (Chaetomium thermophilum); experiment: native gel or EMSA; remark: listed apart in the source
[4] = target: ctMic60sol L676D (Chaetomium thermophilum); experiment: native gel or EMSA
[5] = target: ctMic60sol R525C (Chaetomium thermophilum); experiment: native gel or EMSA
crystal structure = target: the molecule itself; experiment: crystal structure

With “Chaetomium thermophilum Mic19 (natural protein)” the fold reduction of affinity against ctMic60sol [1] was 30 fold.

Molecule “Chaetomium thermophilum Mic60 excluding the TM region (residues 208 to 691) (domain or fragment)” has a stoichiometry N [2] of 2 and a stoichiometry N [3] of 4.

Work on ctMic60sol L676D (domain or fragment) yielded a stoichiometry N [4] of 2.

For ctMic60sol R525C (domain or fragment), the stoichiometry N [5] was 4.

B1: Mic60 coiled-coil domain from Lachancea thermotolerans (amino acids 207 to 382) (domain or fragment, UniProt C5E325 207-382, looked up)
chain: NEDIRTNVAESVAVQYGQASKDLHESFEIRAKSREVELTQQFLNEFNAFKAQLEKHSSEELASALKANEQALLAKQSNEVALLSMKQVEEFTKILSEKLDQERQGRLSKLEALNGSVQELAEAVDQVDTLVMKSEVLSQLSLLTTLLKNKLHAGDESSVKIDSELARLKTLCDILP
With B1 the “stoichiometry N” value (crystal structure) was 4.
